Laboratory results from article PMC6155775, “Role of Quinone Reductase 2 in the Antimalarial Properties of Indolone-Type Derivatives” (Molecules : A Journal of Synthetic Chemistry and Natural …, 2017).

Substrate: CC1=CC(=O)c2ccccc2C1=O
Test: enzyme kinetics (KM) by BNAH fluorescence decrease; reference substrate
Assay type: biochemical, Homo sapiens
Settings: FAD; pH 8.5; 37.0 °C

B1: human quinone reductase 2 (hQR2) (Homo sapiens) (protein)
chain: MAGKKVLIVYAHQEPKSFNGSLKNVAVDELSRQGCTVTVSDLYAMNLEPRATDKDITGTLSNPEVFNYGVETHEAYKQRSLASDITDEQKKVREADLVIFQFPLYWFSVPAILKGWMDRVLCQGFAFDIPGFYDSGLLQGKLALLSVTTGGTAEMYTKTGVNGDSRYFLWPLQHGTLHFCGFKVLAPQISFAPEIASEEERKGMVAAWSQRLQTIWKEEPIPCTAHWHFGQ
notes: 6his-hQR2
**Q.** With B1 as the protein, how does the Km read?
**A.** Its Km is 10 ± 1 µM.
